Measurements as given in patent publication US20040110688.

target: factor VIIIa (UniProt P00451)
Sequence (P00451 other isoform, or with tags, fused parts or gaps): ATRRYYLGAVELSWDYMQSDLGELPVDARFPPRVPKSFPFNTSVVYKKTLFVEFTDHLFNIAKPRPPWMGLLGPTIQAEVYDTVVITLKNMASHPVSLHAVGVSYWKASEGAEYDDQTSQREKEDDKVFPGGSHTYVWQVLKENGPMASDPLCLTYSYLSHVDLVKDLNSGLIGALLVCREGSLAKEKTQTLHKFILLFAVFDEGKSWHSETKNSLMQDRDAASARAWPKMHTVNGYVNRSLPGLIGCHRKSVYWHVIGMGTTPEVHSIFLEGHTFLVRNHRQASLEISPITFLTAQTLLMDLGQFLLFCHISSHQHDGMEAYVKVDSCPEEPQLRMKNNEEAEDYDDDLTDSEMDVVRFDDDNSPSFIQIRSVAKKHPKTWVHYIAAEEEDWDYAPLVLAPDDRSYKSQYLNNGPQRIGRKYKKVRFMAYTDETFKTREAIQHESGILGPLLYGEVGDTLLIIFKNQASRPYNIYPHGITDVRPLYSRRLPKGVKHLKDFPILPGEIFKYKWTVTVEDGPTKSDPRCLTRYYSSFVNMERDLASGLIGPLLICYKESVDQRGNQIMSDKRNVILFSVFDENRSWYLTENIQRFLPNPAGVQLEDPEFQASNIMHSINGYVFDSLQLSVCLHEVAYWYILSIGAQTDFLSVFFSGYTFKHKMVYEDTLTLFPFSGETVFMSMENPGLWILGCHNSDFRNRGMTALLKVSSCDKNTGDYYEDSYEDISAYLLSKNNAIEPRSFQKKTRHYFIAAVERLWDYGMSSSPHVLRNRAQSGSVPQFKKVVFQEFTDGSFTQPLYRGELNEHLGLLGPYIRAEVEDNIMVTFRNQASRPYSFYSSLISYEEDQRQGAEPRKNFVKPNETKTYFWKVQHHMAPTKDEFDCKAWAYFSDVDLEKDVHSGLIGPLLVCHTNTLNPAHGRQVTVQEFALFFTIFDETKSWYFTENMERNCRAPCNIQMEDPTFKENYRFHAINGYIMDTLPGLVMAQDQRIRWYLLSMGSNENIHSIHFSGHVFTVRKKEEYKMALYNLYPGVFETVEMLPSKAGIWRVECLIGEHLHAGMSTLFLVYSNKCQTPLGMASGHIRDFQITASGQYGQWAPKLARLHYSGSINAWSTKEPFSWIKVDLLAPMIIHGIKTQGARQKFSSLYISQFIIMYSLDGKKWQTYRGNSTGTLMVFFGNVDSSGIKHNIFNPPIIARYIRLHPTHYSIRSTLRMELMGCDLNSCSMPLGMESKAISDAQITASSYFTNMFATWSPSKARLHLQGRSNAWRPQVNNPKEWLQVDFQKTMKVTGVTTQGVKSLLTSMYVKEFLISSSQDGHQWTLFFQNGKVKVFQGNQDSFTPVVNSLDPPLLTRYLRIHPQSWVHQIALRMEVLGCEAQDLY

Substance	X-activation rate, PL-minus system (14 nM VIIIa, 400 nM X)	X-activation rate, PL-plus system (70 pM VIIIa, 0.5 nM IXa, 15 nM X)	rate of factor X activation with phospholipid, factor VIIIa increased from 70 pM to 14 nM
IXaD332Y	NM	NM	IXaD332Y ~4.1 nM/min
IXaL330I	0.94 nM/min	0.95 nM/min	–
IXaL337I	NM	NM	IXaL337I ~3.2 nM/min
IXaPCEGF1	2.71 nM/min	NM	–
IXaQ50P	2.81 nM/min	NM	–
IXaR333L	NM	NM	IXaP333L ~2.7 nM/min
IXaR333Q	NM	NM	IXaR333Q ~2.4 nM/min
IXaR338Q	2.22 nM/min	2.53 nM/min	–
IXaT335A	1.83 nM/min	1.92 nM/min	–
